What was measured:
[1] = target: nuclear factor-κB (NF-κB) p65 subunit, human, wild type (UniProt Q04206)
[2] = target: p65 phosphorylation-deficient mutant S276A (UniProt Q04206)
p65 mutant S536A = p65 mutant S536A (UniProt Q04206)
Sequence of p65 mutant S536A (Q04206 whole entry S536A): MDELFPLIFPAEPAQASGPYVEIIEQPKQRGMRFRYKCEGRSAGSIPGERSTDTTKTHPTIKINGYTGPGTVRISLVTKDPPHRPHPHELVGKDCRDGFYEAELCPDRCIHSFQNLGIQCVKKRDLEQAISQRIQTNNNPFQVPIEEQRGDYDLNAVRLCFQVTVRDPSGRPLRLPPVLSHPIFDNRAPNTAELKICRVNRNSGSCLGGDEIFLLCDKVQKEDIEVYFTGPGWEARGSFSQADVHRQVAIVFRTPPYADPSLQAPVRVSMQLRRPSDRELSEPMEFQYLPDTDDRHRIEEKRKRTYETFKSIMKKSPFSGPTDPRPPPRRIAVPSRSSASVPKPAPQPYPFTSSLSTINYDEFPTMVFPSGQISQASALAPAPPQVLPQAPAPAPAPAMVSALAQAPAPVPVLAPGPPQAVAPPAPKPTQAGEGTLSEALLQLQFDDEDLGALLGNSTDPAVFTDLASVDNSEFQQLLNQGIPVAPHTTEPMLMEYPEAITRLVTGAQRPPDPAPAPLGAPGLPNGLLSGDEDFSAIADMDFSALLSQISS

Sequence of p65 phosphorylation-deficient mutant S276A (Q04206 whole entry S276A): as the sequence (Q04206 whole entry S536A) above, with S276A, A536S counted along it
Sequence of nuclear factor-κB (NF-κB) p65 subunit, human, wild type (Q04206 whole entry): as the sequence (Q04206 whole entry S536A) above, with A536S counted along it

For PKA-Cβ1, human, the NF-κB promoter activity [1] was “Co-transfection with PKA-Cβ1 significantly enhanced the p65-induced NF-κB promoter activity”, the “phosphorylation of p65 (Phos-tag PAGE)” value [1] was “the overexpression of PKA-Cβ1, the major subtype of Cβ in BEAS-2B cells, induced the phosphorylation of p65, which was inhibited by H89” and the NF-κB promoter activity [2] was “which was abrogated by co-expressing the S276A mutant of p65”.
With “protein kinase A catalytic subunit β (PKA-Cβ), human” the “intensity ratio of PKA-Cβ-induced phosphorylation (Phos-tag PAGE)” value (p65 mutant S536A) was “The intensity ratio of PKA-Cβ-induced phosphorylation was decreased in S276A- and S536A-transfected cells compared to the wild-type p65-transfected cells” and the “intensity ratio of PKA-Cβ-induced phosphorylation (Phos-tag PAGE)” value [2] was “The intensity ratio of PKA-Cβ-induced phosphorylation was decreased in S276A- and S536A-transfected cells compared to the wild-type p65-transfected cells”.

From US11045456
